The results in this text go back to US20160223554A1, “METHODS FOR DIAGNOSIS, PROGNOSIS AND METHODS OF TREATMENT” (priority 2011, published 2016).

The test system of this assay is AML blasts. Nature of the assay: SCNP phospho-flow signaling nodes in AML PBMC (Example 2, Study No. 1). Format: cell-based, human. Particulars: for Mean Value of CRs: CR patients; for Mean Value of CRs / Mean Value of NRs: Study No. 1; for Mean Value of NRs: NR patients. In outline:
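Thawed AML cells, Amine Aqua-stained, rested 2 h at 37° C. at 1.25×10^6 cells/ml, then stimulated 10 min at 37° C. (stimuli prepared at 5× final). Methanol-permeabilized, then stained 30 min at RT with optimized antibody cocktail for flow cytometry.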

The mark [1] stands for this setting: Fold = log2(MFI modulated) - log2(MFI unmodulated), 9 CRs, Study No.1.
Setting [2] is: Fold = log2(MFI modulated) - log2(MFI unmodulated), 25 NRs, Study No.1.
Setting [3] is: Fold metric, Study No. 1, CRp patient included in NR group.
Setting [4] is: Total Phospho metric, Study No. 1, CRp patient included in NR group.
Setting [5] is: read-out p-CREB, metric TotalPhospho.
Where [6] appears, read: read-out p-Erk, metric TotalPhospho.
Setting [7] is: read-out p-Plcγ2, metric TotalPhospho.
Setting [8] is: read-out p-Stat1, metric TotalPhospho.
Where [9] appears, read: read-out p-Stat3, metric TotalPhospho.

With SCF: stem cell factor, ligand of c-Kit, under setting [1], the “p-Akt Fold, Mean Value of CRs” value was determined as 0.12. Moreover, the “p-Akt Fold, Mean Value of NRs” value under setting [2] turned out to be 0.57. Moreover, under setting [3], the “Mean Value of CRs, p-Akt” value amounted to 0.09; the “Mean Value of CRs, p-Erk” value is listed as −0.06; the “Mean Value of NRs, p-Akt” value came out at 0.56; the “Mean Value of NRs, p-Erk” value came out at 0.11. Also, under setting [4], the “Mean Value of CRs, p-CREB” value turned out to be 1.32; the “Mean Value of CRs, p-Plcγ2” value is given as 1.80; the “Mean Value of NRs, p-CREB” value was determined as 1.92; the “Mean Value of NRs, p-Plcγ2” value was 2.79. Moreover, where the note is “read-out p-Akt, metric Fold”, the “Mean Value of CRs” value was found to be 0.12 and the “Mean Value of NRs” value was found to be 0.57. Further, under setting [5], the “Mean Value of CRs” value is 1.38 and the “Mean Value of NRs” value came out at 1.92. Where the note is “read-out p-Erk, metric Fold”, the “Mean Value of CRs” value was −0.05 and the “Mean Value of NRs” value worked out at 0.11. In addition, under setting [6], the “Mean Value of CRs” value came out at 1.87 and the “Mean Value of NRs” value is on record as 2.28. Moreover, under setting [7], the “Mean Value of CRs” value is 1.87 and the “Mean Value of NRs” value is 2.81.

B1: FLT3L: fms-like tyrosine kinase receptor-3 ligand (protein, UniProt P49771 27-235, looked up)
Fms-related tyrosine kinase 3 …: TQDCSFQHSPISSDFAVKIRELSDYLLQDYPVTVASNLQDEELCGGLWRLVLAQRWMERLKTVAGSKMQGLLERVNTEIHFVTKCAFQPPPSCLRFVQTNISRLLQETSEQLVALKPWITRQNFSRCLELQCQPDSSTLPPPWSPRPLEATAPTAPQPPLLLLLLLPVGLLLLAAAWCLHWQRTRRRTPRPGEQVPPVPSPQDLLLVEH
As to B1, under setting [1], the “p-Akt Fold, Mean Value of CRs” value was found to be 0.18 and the “p-S6 Fold, Mean Value of CRs” value is given as 0.28. Besides, under setting [2], the “p-Akt Fold, Mean Value of NRs” value amounted to 0.64 and the “p-S6 Fold, Mean Value of NRs” value was 0.81. Besides, under setting [3], the “Mean Value of CRs, p-Akt” value was 0.10; the “Mean Value of CRs, p-CREB” value is 0.07; the “Mean Value of CRs, p-Erk” value was found to be 0.08; the “Mean Value of CRs, p-Plcγ2” value is on record as −0.14. Besides, under setting [3], the “Mean Value of CRs, p-S6” value was 0.14; the “Mean Value of NRs, p-Akt” value is 0.65; the “Mean Value of NRs, p-CREB” value was determined as 0.36; the “Mean Value of NRs, p-Erk” value was 0.33. Also, under setting [3], the “Mean Value of NRs, p-Plcγ2” value is −0.08 and the “Mean Value of NRs, p-S6” value is 0.83. Besides, under setting [4], the “Mean Value of CRs, p-CREB” value turned out to be 1.39; the “Mean Value of CRs, p-Plcγ2” value is 1.81; the “Mean Value of NRs, p-CREB” value was 2.13; the “Mean Value of NRs, p-Plcγ2” value is 2.78. Under “read-out p-Akt, metric Fold”, the “Mean Value of CRs” value worked out at 0.18 and the “Mean Value of NRs” value was 0.64. Under setting [5], the “Mean Value of CRs” value is 1.50 and the “Mean Value of NRs” value came to 2.12. Further, under setting [7], the “Mean Value of CRs” value was found to be 1.88 and the “Mean Value of NRs” value was found to be 2.80. In addition, under “read-out p-S6, metric Fold”, the “Mean Value of CRs” value is listed as 0.28 and the “Mean Value of NRs” value was found to be 0.81.

B2: IL-27: interleukin-27, cytokine modulator (protein, UniProt Q8NEV9 29-243; Q14213 21-229, looked up)
Interleukin-27 subunit alpha: FPRPPGRPQLSLQELRREFTVSLHLARKLLSEVRGQAHRFAESHLPGVNLYLLPLGEQLPDVSLTFQAWRRLSDPERLCFISTTLQPFHALLGGLGTQGRWTNMERMQLWAMRLDLRDLQRHLRFQVLAAGFNLPEEEEEEEEEEEEERKGLLPGALGSALQGPAQVSWPQLLSTYRLLHSLELVLSRAVRELLLLSKAGHSVWPLGFPTLSPQP
Interleukin-27 subunit beta: RKGPPAALTLPRVQCRASRYPIAVDCSWTLPPAPNSTSPVSFIATYRLGMAARGHSWPCLQQTPTSTSCTITDVQLFSMAPYVLNVTAVHPWGSSSSFVPFITEHIIKPDPPEGVRLSPLAERQLQVQWEPPGSWPFPEIFSLKYWIRYKRQGAARFHRVGPIEATSFILRAVRPRARYYVQVAAQDLTDYGELSDWSLPATATMSLGK
As to B2, under setting [4], the “Mean Value of CRs, p-CREB” value is listed as 1.25; the “Mean Value of CRs, p-Stat1” value is reported as 0.39; the “Mean Value of CRs, p-Stat3” value was found to be 1.01; the “Mean Value of NRs, p-CREB” value was 2.36. For the same molecule, under setting [4], the “Mean Value of NRs, p-Stat1” value was 0.81 and the “Mean Value of NRs, p-Stat3” value stood at 1.85. Besides, under setting [5], the “Mean Value of CRs” value came out at 1.40 and the “Mean Value of NRs” value is 2.35. Moreover, under setting [8], the “Mean Value of CRs” value stood at 0.41 and the “Mean Value of NRs” value came out at 0.82. Also, under setting [9], the “Mean Value of CRs” value turned out to be 1.07 and the “Mean Value of NRs” value turned out to be 1.86.

B3: G-CSF: granulocyte colony-stimulating factor (protein, UniProt P09919 31-207, looked up)
Granulocyte …: TPLGPASSLPQSFLLKCLEQVRKIQGDGAALQEKLVSECATYKLCHPEELVLLGHSLGIPWAPLSSCPSQALQLAGCLSQLHSGLFLYQGLLQALEGISPELGPTLDTLQLDVADFATTIWQQMEELGMAPALQPTQGAMPAFASAFQRRAGGVLVASHLQSFLEVSYRVLRHLAQP
For B3, the “p-Stat5 Fold, Mean Value of CRs” value under setting [1] is 0.47. Besides, the “p-Stat5 Fold, Mean Value of NRs” value under setting [2] was 1.13. Moreover, under setting [3], the “Mean Value of CRs, p-Stat3” value came out at 0.60; the “Mean Value of CRs, p-Stat5” value came to 0.33; the “Mean Value of NRs, p-Stat3” value stood at 1.52; the “Mean Value of NRs, p-Stat5” value amounted to 1.15. Also, under setting [4], the “Mean Value of CRs, p-Stat3” value is reported as 1.40 and the “Mean Value of NRs, p-Stat3” value is listed as 2.74. Under setting [9], the “Mean Value of CRs” value came to 1.66 and the “Mean Value of NRs” value is 2.70. Besides, where the note is “read-out p-Stat5, metric Fold”, the “Mean Value of CRs” value is recorded as 0.47 and the “Mean Value of NRs” value was found to be 1.13.
